According to patent US20160272691A1, “COMPOSITIONS AND METHODS FOR TREATING CONDITIONS ASSOCIATED WITH y-HERPESVIRUSES” (NDSU RESEARCH FOUNDATION, priority 2013, published 2016):

Key:
[1] = molecular target: Bcl-XL expressed in MCF7 cells (UniProt Q07817); test: cell-based or functional assay
[2] = molecular target: T1, M11 expressed in MCF7 cells (murine γHV68) (UniProt P89884); test: cell-based or functional assay
T1 sequence: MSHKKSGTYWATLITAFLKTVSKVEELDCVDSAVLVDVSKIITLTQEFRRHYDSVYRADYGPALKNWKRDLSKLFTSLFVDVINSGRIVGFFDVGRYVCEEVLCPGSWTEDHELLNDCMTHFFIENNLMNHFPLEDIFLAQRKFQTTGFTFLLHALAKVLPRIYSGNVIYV

Sequence of Bcl-XL expressed in MCF7 cells (Q07817 whole entry): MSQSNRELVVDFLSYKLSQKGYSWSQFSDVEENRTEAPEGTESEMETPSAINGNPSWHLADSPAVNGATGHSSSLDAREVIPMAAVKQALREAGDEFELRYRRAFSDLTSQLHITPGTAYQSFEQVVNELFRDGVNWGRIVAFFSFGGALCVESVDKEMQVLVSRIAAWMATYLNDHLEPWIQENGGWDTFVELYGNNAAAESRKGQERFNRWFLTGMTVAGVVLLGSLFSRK

Substance | Bcl-XL-mediated down-regulation of autophagy (GFP-LC3 puncta per cell, MCF7) [1] | M11-mediated down-regulation of autophagy (GFP-LC3 puncta per cell, MCF7) [2]
Beclin 1 G120E+D121A double mutant, expressed in MCF7 cells (from UniProt Q14457 1-450) | 0.00079 p (t-test) | 0.228 p (t-test)
Beclin 1 L112A mutant, expressed in MCF7 cells (from UniProt Q14457 1-450) | 0.0621 p (t-test) | 0.00065 p (t-test)
Beclin 1 G120E mutant, expressed in MCF7 cells (from UniProt Q14457 1-450) | 0.0119 p (t-test) | 0.0313 p (t-test)
Beclin 1 F123A mutant, expressed in MCF7 cells (from UniProt Q14457 1-450) | 0.00246 p (t-test) | 0.0107 p (t-test)
Beclin 1 L116A mutant, expressed in MCF7 cells (from UniProt Q14457 1-450) | 0.00212 p (t-test) | 0.00432 p (t-test)
Beclin 1 K117A mutant, expressed in MCF7 cells (from UniProt Q14457 1-450) | 0.504 p (t-test) | 0.157 p (t-test)
